According to patent US20240270846A1 (published 2024):
Substitutions are numbered along the chain they refer to. Names and notes keep the numbering of the source.

B1: CE115HA000 H35A one-arm antibody (antibody, human IgG1, kappa, L234A L235A, N297A, name in Kabat numbering)
heavy: QVQLVESGGGVVQPGRSLRLSCAASGFTFSNAWMAWVRQAPGKGLEWVAQIKAKSNNYATYYAESVKGRFTISRDDSKNSLYLQMNSLKTEDTAVYYCRYVHYGAYYGVDAWGQGTTVTVSSASTKGPSVFPLAPSSKSTSGGTAALGCLVKDYFPEPVTVSWNSGALTSGVHTFPAVLQSSGLYSLSSVVTVPSSSLGTQTYICNVNHKPSNTKVDKKVEPKSCDKTHTCPPCPAPEAAGGPSVFLFPPKPKDTLMISRTPEVTCVVVDVSHEDPEVKFNWYVDGVEVHNAKTKPREEQYASTYRVVSVLTVLHQDWLNGKEYKCKVSNKALPAPIEKTISKAKGQPREPQVYTLPPSRCELTKNQVSLSCAVKGFYPSDIAVEWESNGQPENNYKTTPPVLDSDGSFFLVSKLTVDKSRWQQGNVFSCSVMHEALHNHYTQKSLSLSPDYKDDDDK
chain: EPKSSDKTHTCPPCPAPELLGGPSVFLFPPKPKDTLMISRTPEVTCVVVDVSHEDPEVKFNWYVDGVEVHNAKTKPREEQYNSTYRVVSVLTVLHQDWLNGKEYKCKVSNKALPAPIEKTISKAKGQPREPQVCTLPPSRDELTKNQVSLWCLVKGFYPSDIAVEWESNGQPENNYKTTPPVLDSDGSFFLYSKLTVDKSRWQQGNVFSCSVMHEALHNRYTQKSLSLSP
light: DIVMTQSPLSLPVTPGEPASISCRSSQSLVHSNRNTYLHWYQQKPGQAPRLLIYKVSNRFSGVPDRFSGSGSGTDFTLKISRVEAEDVGVYYCGQGTQVPYTFGQGTKLEIKRTVAAPSVFIFPPSDEQLKSGTASVVCLLNNFYPREAKVQWKVDNALQSGNSQESVTEQDSKDSTYSLSSTLTLSKADYEKHKVYACEVTHQGLSSPVTKSFNRGEC
notes: one-arm antibody
B2: CE115HA000 A52aS one-arm antibody (antibody, human IgG1, kappa, L234A L235A, N297A, name in Kabat numbering)
heavy: B1 heavy with A35H, A53S
chain: B1 chain
light: B1 light
notes: one-arm antibody
B3: CE115HA000 A56K one-arm antibody (antibody, human IgG1, kappa, L234A L235A, N297A, name in Kabat numbering)
heavy: B1 heavy with A35H, A59K
chain: B1 chain
light: B1 light
notes: one-arm antibody
B4: CE115HA000 A32Y one-arm antibody (antibody, human IgG1, kappa, L234A L235A, N297A, name in Kabat numbering)
heavy: B1 heavy with A32Y, A35H
chain: B1 chain
light: B1 light
notes: one-arm antibody
B5: CE115HA000 A60D one-arm antibody (antibody, human IgG1, kappa, L234A L235A, N297A, name in Kabat numbering)
heavy: B1 heavy with A35H, A63D
chain: B1 chain
light: B1 light
notes: one-arm antibody
B6: CE115HA000 A56D one-arm antibody (antibody, human IgG1, kappa, L234A L235A, N297A, name in Kabat numbering)
heavy: B1 heavy with A35H, A59D
chain: B1 chain
light: B1 light
notes: one-arm antibody
B7: CE115HA000 A52aD one-arm antibody (antibody, human IgG1, kappa, L234A L235A, N297A, name in Kabat numbering)
heavy: B1 heavy with A35H, A53D
chain: B1 chain
light: B1 light
notes: one-arm antibody
B8: CE115HA000 A56G one-arm antibody (antibody, human IgG1, kappa, L234A L235A, N297A, name in Kabat numbering)
heavy: B1 heavy with A35H, A59G
chain: B1 chain
light: B1 light
notes: one-arm antibody
B9: CE115HA000 D73E one-arm antibody (antibody, human IgG1, kappa, L234A L235A, N297A, name in Kabat numbering)
heavy: B1 heavy with A35H, D76E
chain: B1 chain
light: B1 light
notes: one-arm antibody
B10: CE115HA000 A52aY one-arm antibody (antibody, human IgG1, kappa, L234A L235A, N297A, name in Kabat numbering)
heavy: B1 heavy with A35H, A53Y
chain: B1 chain
light: B1 light
notes: one-arm antibody
B11: CE115HA000 E61D one-arm antibody (antibody, human IgG1, kappa, L234A L235A, N297A, name in Kabat numbering)
heavy: B1 heavy with A35H, E64D
chain: B1 chain
light: B1 light
notes: one-arm antibody
B12: CE115HA000 A52aG one-arm antibody (antibody, human IgG1, kappa, L234A L235A, N297A, name in Kabat numbering)
heavy: B1 heavy with A35H, A53G
chain: B1 chain
light: B1 light
notes: one-arm antibody
B13: CE115HA000 D72E one-arm antibody (antibody, human IgG1, kappa, L234A L235A, N297A, name in Kabat numbering)
heavy: B1 heavy with A35H, D75E
chain: B1 chain
light: B1 light
notes: one-arm antibody
B14: CE115HA000 D73A one-arm antibody (antibody, human IgG1, kappa, L234A L235A, N297A, name in Kabat numbering)
heavy: B1 heavy with A35H, D76A
chain: B1 chain
light: B1 light
notes: one-arm antibody
B15: CE115HA000 A60E one-arm antibody (antibody, human IgG1, kappa, L234A L235A, N297A, name in Kabat numbering)
heavy: B1 heavy with A35H, A63E
chain: B1 chain
light: B1 light
notes: one-arm antibody
B16: CE115HA000 D72A one-arm antibody (antibody, human IgG1, kappa, L234A L235A, N297A, name in Kabat numbering)
heavy: B1 heavy with A35H, D75A
chain: B1 chain
light: B1 light
notes: one-arm antibody
B17: CE115HA000 A52aE one-arm antibody (antibody, human IgG1, kappa, L234A L235A, N297A, name in Kabat numbering)
heavy: B1 heavy with A35H, A53E
chain: B1 chain
light: B1 light
notes: one-arm antibody
B18: CE115HA000 D73K one-arm antibody (antibody, human IgG1, kappa, L234A L235A, N297A, name in Kabat numbering)
heavy: B1 heavy with A35H, D76K
chain: B1 chain
light: B1 light
notes: one-arm antibody
B19: CE115HA000 D73G one-arm antibody (antibody, human IgG1, kappa, L234A L235A, N297A, name in Kabat numbering)
heavy: B1 heavy with A35H, D76G
chain: B1 chain
light: B1 light
notes: one-arm antibody
B20: CE115HA000 A52aV one-arm antibody (antibody, human IgG1, kappa, L234A L235A, N297A, name in Kabat numbering)
heavy: B1 heavy with A35H, A53V
chain: B1 chain
light: B1 light
notes: one-arm antibody
B21: CE115HA000 E61A one-arm antibody (antibody, human IgG1, kappa, L234A L235A, N297A, name in Kabat numbering)
heavy: B1 heavy with A35H, E64A
chain: B1 chain
light: B1 light
notes: one-arm antibody
B22: CE115HA000 A52aP one-arm antibody (antibody, human IgG1, kappa, L234A L235A, N297A, name in Kabat numbering)
heavy: B1 heavy with A35H, A53P
chain: B1 chain
light: B1 light
notes: one-arm antibody
B23: GLS3000 V27cI (Kabat) L chain altered form, one-arm antibody with CE115HA000 (antibody, human IgG1, kappa, L234A L235A, N297A, name in Kabat numbering)
heavy: B1 heavy with A35H
chain: B1 chain
light: B1 light with V30I
notes: one-arm antibody
B24: GLS3000 V27cL (Kabat) L chain altered form, one-arm antibody with CE115HA000 (antibody, human IgG1, kappa, L234A L235A, N297A, name in Kabat numbering)
heavy: B1 heavy with A35H
chain: B1 chain
light: B1 light with V30L
notes: one-arm antibody
B25: GLS3000 V27cY (Kabat) L chain altered form, one-arm antibody with CE115HA000 (antibody, human IgG1, kappa, L234A L235A, N297A, name in Kabat numbering)
heavy: B1 heavy with A35H
chain: B1 chain
light: B1 light with V30Y
notes: one-arm antibody
B26: GLS3000 V27cS (Kabat) L chain altered form, one-arm antibody with CE115HA000 (antibody, human IgG1, kappa, L234A L235A, N297A, name in Kabat numbering)
heavy: B1 heavy with A35H
chain: B1 chain
light: B1 light with V30S
notes: one-arm antibody
B27: GLS3000 V27cD (Kabat) L chain altered form, one-arm antibody with CE115HA000 (antibody, human IgG1, kappa, L234A L235A, N297A, name in Kabat numbering)
heavy: B1 heavy with A35H
chain: B1 chain
light: B1 light with V30D
notes: one-arm antibody
B28: GLS3000 Y32A (Kabat) L chain altered form, one-arm antibody with CE115HA000 (antibody, human IgG1, kappa, L234A L235A, N297A, name in Kabat numbering)
heavy: B1 heavy with A35H
chain: B1 chain
light: B1 light with Y37A
notes: one-arm antibody
B29: GLS3000 S27eY (Kabat) L chain altered form, one-arm antibody with CE115HA000 (antibody, human IgG1, kappa, L234A L235A, N297A, name in Kabat numbering)
heavy: B1 heavy with A35H
chain: B1 chain
light: B1 light with S32Y
notes: one-arm antibody
B30: GLS3000 S56A (Kabat) L chain altered form, one-arm antibody with CE115HA000 (antibody, human IgG1, kappa, L234A L235A, N297A, name in Kabat numbering)
heavy: B1 heavy with A35H
chain: B1 chain
light: B1 light with S61A
notes: one-arm antibody
B31: GLS3000 V27cE (Kabat) L chain altered form, one-arm antibody with CE115HA000 (antibody, human IgG1, kappa, L234A L235A, N297A, name in Kabat numbering)
heavy: B1 heavy with A35H
chain: B1 chain
light: B1 light with V30E
notes: one-arm antibody
B32: GLS3000 S52A (Kabat) L chain altered form, one-arm antibody with CE115HA000 (antibody, human IgG1, kappa, L234A L235A, N297A, name in Kabat numbering)
heavy: B1 heavy with A35H
chain: B1 chain
light: B1 light with S57A
notes: one-arm antibody
B33: GLS3000 V27cP (Kabat) L chain altered form, one-arm antibody with CE115HA000 (antibody, human IgG1, kappa, L234A L235A, N297A, name in Kabat numbering)
heavy: B1 heavy with A35H
chain: B1 chain
light: B1 light with V30P
notes: one-arm antibody

target: T1, CD3 epsilon homodimer protein (UniProt P07766 23-126); assay: SPR Biacore T200, antibody over immobilised CD3e homodimer;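 note: CD3 epsilon homodimer amine-coupled on a CM4 chip, run at 25 °C in HBS-EP+, Z = bound amount of each single-residue H chain variant over that of the parent antibody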
T1 construct: also called CD3 (CD3 epsilon)
T1 sequence (P07766 23-126): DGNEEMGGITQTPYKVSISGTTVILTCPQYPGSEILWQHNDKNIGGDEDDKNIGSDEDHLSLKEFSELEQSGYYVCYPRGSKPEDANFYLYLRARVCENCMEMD

ratio of amounts bound (Z=Y/X vs CE115HA000)	Binder
0.17	B1
1.05	B2
1.35	B3
0.33	B4
0.99	B5
0.51	B6
1.34	B7
0.61	B8
0.73	B9
0.31	B10
0.91	B11
0.81	B12
1.05	B13
0.83	B14
0.94	B15
1.41	B16
0.57	B17
0.87	B18
1.07	B19
0.52	B20
1.09	B21
0.15	B22

target: T2, CD3 epsilon homodimer protein (UniProt P07766 23-126); assay: SPR Biacore T200, CD3 epsilon homodimer immobilized; vs unaltered GLS3000;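 note: antibody variants flowed as analyte over CD3 epsilon homodimer amine-coupled to a CM4 chip, at 25 °C in HBS-EP+ running buffer, fitted with Biacore T200 Evaluation Software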
T2 construct: construct not described; homodimer as printed; also called CD3 (CD3 epsilon)
T2 sequence (P07766 23-126): as above

KD ratio to GLS3000 (Affinity up)	Binder
1.03	B23
0.81	B24
1.25	B25
3.04	B26
3.21	B27
66.8	B28
1.1	B29
1.18	B30
1.1	B31
0.9	B32
3.71	B33
